Test results as given in IntAct's records for PubMed 14675534.

B1: Partitioning defective protein 3 (Caenorhabditis elegans), Q17353 (parent)
chain: MSASSTSSSSTSCPEGGEPSGSCKSSDEGESTLKKRMQQYGIASGYANSSISTLDRSQYQSLPLNGTRRVTVQFGRMKIVVPWKESDQTVGQLADAALLRYKKARGMANEDRIHVHRLECASDGGILDMDDVLEEVFDLNYDQILAITDEANGGSTTPTYSQIQKQQHHYAQPLPYARKFDGGPSTPIASAFGSVTVNHQAHRAASPYNVGFARSNSRDFAPQPTHSKERRDSVVEVSSFDQIPQSGLRVSTPKPSRQSEDVIDGKPMNQPILRSSLRTEASGSRTEEATPVKQSRVTLSPEVEKKLAEQDERKSERRKHYDKNPGRFARGSDRKSRITDALLDARDRIADQLESQNPAEETKSQMIRVKIDQGPMPGTSLVTFPPIPEKSENEKQLGIEVNAVFDESSELPGTSEPTKLSSVQIMKIEDGGRIAKDGRIRVGDCIVAIDGKPVDQMSIIRVRASISDLAAVTSRPVTLIINRSLESFLEQESSAKPIQSALQQANTQYIGHTTVVELIKSSNGFGFTVTGRETAKGERLFYIGTVKPYGVALGHLKSGDRLLEINGTPTGQWTQSEIVEKLKETMVGEKIKFLVSRVSQSAIMSTSASSENKENEETLKVVEEEKIPQKLPLPALMTPPVPKDTPALSPSGASRFEIVIPFINGSSSAGLGVSLKARVSKKSNGSKVDCGIFIKNVMHGGAAFKEGGLRVDDRIVGVEDIDLEPLDNREAQAALAKKLKEVGMISSNVRLTISRYNECNPGQISRDLSRITVDASSPSPSSRMSSHTAPDSLLPSPATRGTSSSGADSSHSRQSSASSAVPAVPARLTERDSIVSDGTSRNDESELPDSADPFNREGLGRKSLSEKRGMGAAADPQHIKLFQDIKHQRQNSAPTSSTQKRSKSQPRSSSQRNYRSPMKLVDLPTTAAASASTNSQNLDDSDMLNRRSQSMESINRPVESILRGTGQIPTGSSSKVQFMQAASPDQHPFPPGAALLRLKNEESRSRDKSRRKSMGNPFSAMRNFFGFGSKSRDASPEKTPTESVQLRSVERPKSIIDERNNGSSERAPPPLPPHQSQRRGSGGNVFVDYGEPYGLIPQYPHNTTSGYESYADSELYDRYAAHRYHPRGGPIIDEDEYIYRQQSTSGNSPINTSSYVNYGLPASNAYHVGSRIPPQTSSGSISKTSGAMRRVYPAEYDEDVAYHQQIPQQSTRYQQGSGSGRGNADYHHMFNSWFAYTGGGAVGAAPVIKSSYGSSPVRIAAASAIERGESFVVEPVSGSSASATDRRGRSTSSGAVASGSSSTGFQYAAKEKYADARSGKFNGGSTRLFIPRHGGGLSAAAFATNFGGEAYETRGGGAGGSPSQYRRRDQGPPHRFPQY
partner: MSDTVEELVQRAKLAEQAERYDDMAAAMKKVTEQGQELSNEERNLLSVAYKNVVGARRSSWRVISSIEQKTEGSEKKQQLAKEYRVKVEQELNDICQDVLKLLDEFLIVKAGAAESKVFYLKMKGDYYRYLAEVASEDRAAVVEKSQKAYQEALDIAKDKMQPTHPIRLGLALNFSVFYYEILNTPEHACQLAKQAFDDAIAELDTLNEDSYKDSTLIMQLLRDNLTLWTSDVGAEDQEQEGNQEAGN

Variants of: B1
Details: with 14331_caeel par-5, P41932

effect of a mutation on the interaction | Variant
decreasing interaction | S960A
